Measurements from patent US20080311034A1 (published 2008).

T1: recombinant human His-tagged FcγRIIa (R&D Systems #1330-CD-050) (human, UniProt P12318 36-218, limits assumed)
T1 construct: Bought; also called CD32a; recombinant, soluble, human FcγRIIa
T1 sequence (looked up): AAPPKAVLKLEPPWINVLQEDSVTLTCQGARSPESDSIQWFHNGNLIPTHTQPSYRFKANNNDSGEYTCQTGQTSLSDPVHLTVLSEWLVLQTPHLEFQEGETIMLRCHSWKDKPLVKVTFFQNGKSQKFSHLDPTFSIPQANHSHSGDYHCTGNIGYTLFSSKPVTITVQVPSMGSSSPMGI

T2: recombinant human FcγRIIb (R&D Systems #1875-CD-050) (human, UniProt P31994 46-217, limits assumed)
T2 construct: Bought; also called CD32b; recombinant, soluble, human FcγRIIb
T2 sequence (looked up): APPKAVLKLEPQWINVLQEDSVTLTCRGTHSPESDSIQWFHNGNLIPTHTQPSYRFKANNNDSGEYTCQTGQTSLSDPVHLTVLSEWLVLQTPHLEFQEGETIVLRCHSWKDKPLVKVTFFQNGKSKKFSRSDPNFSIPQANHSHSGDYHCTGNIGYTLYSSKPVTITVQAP

B1: YB2/0-CNTO 860 I332E (antibody, human IgG1, kappa)
heavy: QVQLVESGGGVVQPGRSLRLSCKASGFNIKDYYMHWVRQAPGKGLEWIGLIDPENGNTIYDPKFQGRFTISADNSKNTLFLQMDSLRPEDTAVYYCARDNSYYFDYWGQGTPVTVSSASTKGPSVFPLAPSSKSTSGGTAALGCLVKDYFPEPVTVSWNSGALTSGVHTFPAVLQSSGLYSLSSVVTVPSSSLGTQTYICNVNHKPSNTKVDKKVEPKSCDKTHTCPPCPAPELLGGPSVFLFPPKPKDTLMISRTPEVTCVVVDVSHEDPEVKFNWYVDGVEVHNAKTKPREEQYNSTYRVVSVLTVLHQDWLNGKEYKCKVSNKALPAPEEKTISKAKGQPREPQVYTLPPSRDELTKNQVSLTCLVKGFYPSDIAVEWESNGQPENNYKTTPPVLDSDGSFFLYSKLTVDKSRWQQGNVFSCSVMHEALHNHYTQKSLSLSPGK
light: DIQMTQSPSSLSASVGDRVTITCKASQDIRKYLNWYQQKPGKAPKLLIYYATSLADGVPSRFSGSGSGTDYTFTISSLQPEDIATYYCLQHGESPYTFGQGTKLEITRTVAAPSVFIFPPSDEQLKSGTASVVCLLNNFYPREAKVQWKVDNALQSGNSQESVTEQDSKDSTYSLSSTLTLSKADYEKHKVYACEVTHQGLSSPVTKSFNRGEC
modifications: Heavy chain N297 carries the YB2/0-type low-fucose N-linked glycan; not carried by the letters.
notes: IgG1/kappa Fc variant; stably expressed in YB2/0 cells (p4148/p2402), low-fucose glycan; EU numbering; also called I332E (YB2/0 cell-derived); I332E from YB2/0 cells; copies: 2 + 2
B2: YB2/0-CNTO 860 WT (antibody, human IgG1, kappa)
heavy: not shown
light: B1 light
modifications: Heavy chain N297 carries the YB2/0-type N-linked glycan (40-60% fucosylated); not carried by the letters.
notes: Anti-human tissue factor human IgG1/kappa; stably expressed in rat YB2/0 cells (p2401/p2402; YB2/0 Abs typically 40-60% fucosylated), purified by protein A; also called WT (YB2/0 cell-derived); WT from YB2/0 cells; copies: 2 + 2
B3: YB2/0-CNTO 860 S239D/I332E (antibody, human IgG1, kappa)
heavy: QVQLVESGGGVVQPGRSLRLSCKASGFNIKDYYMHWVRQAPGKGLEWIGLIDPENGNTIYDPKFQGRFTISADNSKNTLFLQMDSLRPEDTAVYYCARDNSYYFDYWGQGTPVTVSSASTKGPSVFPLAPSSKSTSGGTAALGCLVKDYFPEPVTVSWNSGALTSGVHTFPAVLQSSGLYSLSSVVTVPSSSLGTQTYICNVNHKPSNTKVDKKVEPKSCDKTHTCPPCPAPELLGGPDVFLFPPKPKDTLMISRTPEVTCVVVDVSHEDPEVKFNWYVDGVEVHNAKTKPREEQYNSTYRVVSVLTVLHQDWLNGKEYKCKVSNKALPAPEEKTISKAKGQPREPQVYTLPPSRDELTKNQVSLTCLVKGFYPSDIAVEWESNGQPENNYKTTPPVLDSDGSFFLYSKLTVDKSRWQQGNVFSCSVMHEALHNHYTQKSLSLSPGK
light: B1 light
modifications: N-linked glycan at heavy chain Asn297 (YB2/0-type, low fucose); not carried by the letters
notes: IgG1/kappa Fc variant; stably expressed in YB2/0 cells (p4179/p2402); EU numbering; also called S239D/I332E (YB2/0 cell-derived); copies: 2 + 2
B4: YB2/0-CNTO 860 V264I/I332E (antibody, human IgG1, kappa)
heavy: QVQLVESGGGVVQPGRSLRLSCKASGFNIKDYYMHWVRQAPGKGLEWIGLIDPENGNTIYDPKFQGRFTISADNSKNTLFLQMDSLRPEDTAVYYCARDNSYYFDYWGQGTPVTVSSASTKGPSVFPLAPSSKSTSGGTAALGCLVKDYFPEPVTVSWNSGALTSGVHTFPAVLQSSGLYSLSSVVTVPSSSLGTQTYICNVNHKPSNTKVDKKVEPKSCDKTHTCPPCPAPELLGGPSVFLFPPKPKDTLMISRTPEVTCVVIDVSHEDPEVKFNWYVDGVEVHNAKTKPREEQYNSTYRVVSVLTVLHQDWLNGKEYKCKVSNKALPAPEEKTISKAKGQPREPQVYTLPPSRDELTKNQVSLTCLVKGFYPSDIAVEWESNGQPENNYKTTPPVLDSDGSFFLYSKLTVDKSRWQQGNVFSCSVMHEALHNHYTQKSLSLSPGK
light: B1 light
modifications: N-linked glycan at heavy chain Asn297 (YB2/0-type, low fucose); not carried by the letters
notes: IgG1/kappa Fc variant; stably expressed in YB2/0 cells (p4180/p2402); EU numbering; also called V264I/I332E (YB2/0 cell-derived); copies: 2 + 2

Target: T1, recombinant human His-tagged FcγRIIa …
Experiment: AlphaScreen, His-tagged FcγRIIa on nickel acceptor beads
Method: (§1) FcγRIIa (CD32a) AlphaScreen—Nickel acceptor beads (Perkin Elmer #6760619C) were diluted 1:50 in assay buffer (PBS, pH 7.4, 4 mg/ml BSA, 0.01% Tween-20), and 27.5 μl were added to each well of a Nunc V-bottom polypropylene plate (VWR # 62409-108) (Powers G., Notebook 9006, pp. 169-175, 182-185). A 2.0 μg/ml solution of recombinant human His-tagged FcγRIIa (R&D Systems #1330-CD-050) was prepared in assay buffer and 27.5 μl added to each well of a separate Nunc V bottom polypropylene plate. Titrations of test Abs were prepared in the Nunc V bottom polypropylene plate starting at 30 μg/ml. A 2 μg/ml solution of biotinylated goat F(ab′)₂ anti-human IgG F(ab′)₂ (Jackson Immunoresearch #109-066-097) was prepared in assay buffer and 27.5 μl added to each well of another Nunc V bottom polypropylene plate. A 1:50 dilution of streptavidin donor beads (PerkinElmer # 6760002) was prepared in assay buffer and 27.5 μl added to each well of another Nunc V bottom polypropylene plate. A volume of 5 μl of each reagent was added to the corresponding quadrants of a low-volume, non-binding white 384-well plate (Corning # 3673) in the following order: acceptor beads, FcγRIIa, test Ab, biotinylated anti-human IgG F(ab′)₂, and streptavidin donor beads. The plates were incubated for 30 minutes with shaking and the O.D.s determined using an Envision plate reader.

concentration (ng/ml) required for a set O.D. signal [ng/mL]	Binder
60	B1
63	B2
60	B3
90	B4

Target: T3, recombinant human His-tagged FcγRIIIa (extracellular domain made at Centocor) (human, UniProt P08637 17-208)
T3 construct: extracellular domain; also called CD16a; recombinant, soluble, human FcγRIIIa
Experiment: ELISA, His-tagged FcγRIIIa captured on HisGrab plate
Method: FcγRIIIa (CD16a) ELISA—A human FcγRIIIa binding assay was done in ELISA format similar to the assay for FcγRI above. 50 μl of a 2 μg/ml solution of recombinant human His-tagged FcγRIIIa (extracellular domain made at Centocor) in ELISA buffer (PBS, 4 mg/ml BSA, 0.01% Tween-20) was added to each well of HisGrab 96 well plates (Pierce #15142) (Powers G., Notebook 10378, 19-23). The plate was incubated for 3 hours at room temp. The plates were blocked with 200 μl of Starting Block (Pierce #15142) for 30 min, and then washed 3× with 300 μl of wash buffer (PBS, 0.01% Tween-20) on a plate washer. Serial dilutions of the CNTO 860 test samples were made in Starting Block buffer and 50 μl per well of each titration were added in duplicate to the FcγRIIIa-coated plates. The plates were incubated for 1 hour. The plates were washed 3× with 300 μl of wash buffer on a plate washer. 50 μl of a 1:10,000 dilution of HRP-labeled goat F(ab′)2 anti-human IgG F(ab′)2 (Jackson Immunoresearch # 109-036-097) in Starting Block buffer was added to each well. The plates were incubated for 30 minutes. The plates were washed 3× with 300 μl of wash buffer on the plate washer. 50 μl per well TMB substrate (RDI #RDI-TMBSU-1L) was added to each well and developed for 3-5 minutes. The reaction was stopped by adding 100 μl […] sulfuric acid. The plates were read at OD450 on an Envision plate reader. Antibody concentration vs OD450 values were graphed for each CNTO 860 variant and the antibody concentration needed to achieve an OD450 reading of 0.14 established by interpolation within each data curve.

T3 sequence (P08637 17-208): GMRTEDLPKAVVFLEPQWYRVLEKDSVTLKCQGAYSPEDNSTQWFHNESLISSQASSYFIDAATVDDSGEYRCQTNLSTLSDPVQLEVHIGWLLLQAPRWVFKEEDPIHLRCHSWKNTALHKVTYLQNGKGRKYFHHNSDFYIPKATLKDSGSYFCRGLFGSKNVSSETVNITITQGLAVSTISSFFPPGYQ

concentration (ng/ml) required for an O.D. value of 0.14 [ng/mL]	Binder
165	B1
1500	B2
120	B3
165	B4

Target: T4, recombinant human His-tagged FcγRI (extracellular domain, R&D Systems #1257-FC-050) (human, UniProt P12314 16-292)
T4 construct: extracellular domain; Bought; also called CD64; recombinant, soluble, human FcγRI
Experiment: ELISA, His-tagged FcγRI captured on HisGrab plate
Method: FcγRI (CD64) ELISA —50 μl of a 1 μg/ml solution of recombinant human His-tagged FcγRI (extracellular domain, R&D Systems #1257-FC-050) in ELISA buffer (PBS, pH 7.4, 4 mg/ml BSA, 0.01% Tween-20) was added to each well of HisGrab 96 well plates (Pierce #15142) (Powers G., Notebook 9006, pp. 166-168, 180-181). The plate was incubated with shaking for 3 hours. The plates were washed 3× with 300 μl of wash buffer (PBS, 0.01% Tween-20) on a plate washer. Serial dilutions of the CNTO860 antibody Fc-variant samples were made in ELISA buffer and 50 μl per well of each titration were added in duplicate to the FcγRI-coated plates. The plates were incubated with shaking for 1 hour. The plates were washed 3× with 300 μl of wash buffer on a plate washer. 50 μl of a 1:10,000 dilution of HRP-labeled goat F(ab′)₂ anti-human IgG F(ab′)₂ (Jackson Immunoresearch # 109-036-097) in ELISA buffer was added to each well. The plates were incubated with shaking for 30 minutes. The plates were washed 3× with 300 μl of wash buffer on the plate washer. 50 μl per well TMB substrate (RDI #RDI-TMBSU-1L) was added to each well and developed for 5 minutes. The reaction was stopped by adding 100 μl 0.2 N sulfuric acid. The plates were read at OD450 on an Envision plate reader.

T4 sequence (P12314 16-292): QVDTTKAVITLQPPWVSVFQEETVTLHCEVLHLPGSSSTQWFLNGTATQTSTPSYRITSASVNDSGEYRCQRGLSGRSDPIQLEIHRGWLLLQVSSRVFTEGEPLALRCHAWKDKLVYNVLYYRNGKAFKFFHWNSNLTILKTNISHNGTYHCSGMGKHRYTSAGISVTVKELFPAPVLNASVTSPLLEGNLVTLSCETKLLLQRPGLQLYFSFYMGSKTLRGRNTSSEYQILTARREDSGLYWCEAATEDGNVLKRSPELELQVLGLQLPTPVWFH

concentration (ng/ml) required for an O.D. value of 1.0 [ng/mL]	Binder
300	B1
420	B2
300	B3
480	B4

Target: T2, recombinant human FcγRIIb (R&D Systems …)
Experiment: AlphaScreen, FcγRIIb on nickel acceptor beads
Method: as §1
FcγRIIb (CD32b) AlphaScreen—The assay was performed as described above for FcγRIIa except that FcγRIIa was replaced with FcγRIIb (R&D Systems #1875-CD-050).

concentration (ng/ml) required for an O.D. value of 200,000 [ng/mL]	Binder
75	B1
120	B2
20	B3
60	B4
